Reference: article PMC11969024 (2025)

B1: peptide HD2 (from tick evasin EVA4) / CCL18 (biotinylated, synthetic) (parent complex)
chain 1: EEDDYTAYAPLTCYFT
chain 2: AQVGTNKELCCLVYTSWQIPQKFIVDYSETSPQCPKPGVILLTKRGRQICADPNKKWVQKYISDLKLNA
B2: peptide HD2 (from tick evasin EVA4) / CCL8 (biotinylated, synthetic) (parent complex)
chain 1: EEDDYTAYAPLTCYFT
chain 2: QPDSVSIPITCCFNVINRKIPIQRLESYTRITNIQCPKEAVIFKTKRGKEVCADPKERWVRDSMKHLDQIFQNLKP

Variants of: B1

Row | Variant | enrichment
1 | chain 1 EEDDYTAYAPLTCYRT [chain 1 F15R] | -0.00139 log2 (difference from the parental peptide)
2 | chain 1 EEDDYTAYAPLTCYHT [chain 1 F15H] | 0.242 log2 (difference from the parental peptide)
3 | chain 1 EEDDYTAYAPLTCYIT [chain 1 F15I] | 0.366 log2 (difference from the parental peptide)
4 | chain 1 EEDDYTAYAPLTCYYT [chain 1 F15Y] | 1.67 log2 (difference from the parental peptide)
5 | chain 1 EEDDYTAIAPLTCYFT [chain 1 Y8I] | -7.58 log2 (difference from the parental peptide)
6 | chain 1 EEDDYTAWAPLTCYFT [chain 1 Y8W] | 0.189 log2 (difference from the parental peptide)
7 | chain 1 EEDDYTAMAPLTCYFT [chain 1 Y8M] | -6.37 log2 (difference from the parental peptide)
8 | chain 1 EEDDYTATAPLTCYFT [chain 1 Y8T] | -4.68 log2 (difference from the parental peptide)
9 | chain 1 EEDDYTACAPLTCYFT [chain 1 Y8C] | -8.88 log2 (difference from the parental peptide)
10 | chain 1 EEDDYTAAAPLTCYFT [chain 1 Y8A] | 0.303 log2 (difference from the parental peptide)
11 | chain 1 EEHDYTAYAPLTCYFT [chain 1 D3H] | -1.21 log2 (difference from the parental peptide)
12 | chain 1 EEVDYTAYAPLTCYFT [chain 1 D3V] | -2.61 log2 (difference from the parental peptide)
13 | chain 1 EENDYTAYAPLTCYFT [chain 1 D3N] | -1.71 log2 (difference from the parental peptide)
14 | chain 1 EEYDYTAYAPLTCYFT [chain 1 D3Y] | -1.47 log2 (difference from the parental peptide)
15 | chain 1 EEPDYTAYAPLTCYFT [chain 1 D3P] | 0.322 log2 (difference from the parental peptide)
16 | chain 1 EESDYTAYAPLTCYFT [chain 1 D3S] | -1.57 log2 (difference from the parental peptide)
17 | chain 1 EEQDYTAYAPLTCYFT [chain 1 D3Q] | -2.18 log2 (difference from the parental peptide)
18 | chain 1 EEDDYTAYAPDTCYFT [chain 1 L11D] | -8.28 log2 (difference from the parental peptide)
19 | chain 1 EEDDYTAYAPGTCYFT [chain 1 L11G] | -7.45 log2 (difference from the parental peptide)
20 | chain 1 EEDDYTAYAPPTCYFT [chain 1 L11P] | -3.17 log2 (difference from the parental peptide)
21 | chain 1 EEDDPTAYAPLTCYFT [chain 1 Y5P] | -4.12 log2 (difference from the parental peptide)
22 | chain 1 EEDDFTAYAPLTCYFT [chain 1 Y5F] | -0.587 log2 (difference from the parental peptide)
23 | chain 1 EEDDHTAYAPLTCYFT [chain 1 Y5H] | -4.35 log2 (difference from the parental peptide)
24 | chain 1 EEDDGTAYAPLTCYFT [chain 1 Y5G] | -3.5 log2 (difference from the parental peptide)
25 | chain 1 EEDDSTAYAPLTCYFT [chain 1 Y5S] | -3.37 log2 (difference from the parental peptide)
26 | chain 1 EEDDCTAYAPLTCYFT [chain 1 Y5C] | -5.9 log2 (difference from the parental peptide)

Row | Variant | enrichment
27 | chain 1 EEDDTTAYAPLTCYFT [chain 1 Y5T] | -3.47 log2 (difference from the parental peptide)
28 | chain 1 EEDDYTAYGPLTCYFT [chain 1 A9G] | -3.53 log2 (difference from the parental peptide)
29 | chain 1 EEDDYTAYWPLTCYFT [chain 1 A9W] | -3.66 log2 (difference from the parental peptide)
30 | chain 1 EEDDYTAYVPLTCYFT [chain 1 A9V] | -8.05 log2 (difference from the parental peptide)
31 | chain 1 EEDDYTAYRPLTCYFT [chain 1 A9R] | -1.3 log2 (difference from the parental peptide)
32 | chain 1 HEDDYTAYAPLTCYFT [chain 1 E1H] | -1.83 log2 (difference from the parental peptide)
33 | chain 1 DEDDYTAYAPLTCYFT [chain 1 E1D] | 1.97 log2 (difference from the parental peptide)
34 | chain 1 VEDDYTAYAPLTCYFT [chain 1 E1V] | -1.49 log2 (difference from the parental peptide)
35 | chain 1 FEDDYTAYAPLTCYFT [chain 1 E1F] | -2.72 log2 (difference from the parental peptide)
36 | chain 1 TEDDYTAYAPLTCYFT [chain 1 E1T] | -0.938 log2 (difference from the parental peptide)
37 | chain 1 GEDDYTAYAPLTCYFT [chain 1 E1G] | -0.506 log2 (difference from the parental peptide)
38 | chain 1 QEDDYTAYAPLTCYFT [chain 1 E1Q] | -1.1 log2 (difference from the parental peptide)
39 | chain 1 EPDDYTAYAPLTCYFT [chain 1 E2P] | -2.55 log2 (difference from the parental peptide)
40 | chain 1 ECDDYTAYAPLTCYFT [chain 1 E2C] | -10.2 log2 (difference from the parental peptide)
41 | chain 1 EADDYTAYAPLTCYFT [chain 1 E2A] | -1.63 log2 (difference from the parental peptide)
42 | chain 1 ELDDYTAYAPLTCYFT [chain 1 E2L] | -1.93 log2 (difference from the parental peptide)
43 | chain 1 EEDDYTAYAPLKCYFT [chain 1 T12K] | -4.78 log2 (difference from the parental peptide)
44 | chain 1 EEDDYTAYAPLGCYFT [chain 1 T12G] | -8.91 log2 (difference from the parental peptide)
45 | chain 1 EEDDYTAYAPLDCYFT [chain 1 T12D] | -4.6 log2 (difference from the parental peptide)
46 | chain 1 EEDDYTAYAPLQCYFT [chain 1 T12Q] | -0.825 log2 (difference from the parental peptide)
47 | chain 1 EEDDYTAYAPLHCYFT [chain 1 T12H] | -0.953 log2 (difference from the parental peptide)
48 | chain 1 EEDDYTAYAWLTCYFT [chain 1 P10W] | -5.72 log2 (difference from the parental peptide)
49 | chain 1 EEDDYTAYAYLTCYFT [chain 1 P10Y] | -6.76 log2 (difference from the parental peptide)
50 | chain 1 EEDDYTAYAPLTCYFM [chain 1 T16M] | 0.26 log2 (difference from the parental peptide)
51 | chain 1 EEDDYTAYAPLTCYFW [chain 1 T16W] | -0.639 log2 (difference from the parental peptide)
52 | chain 1 EEDDYTAYAPLTCYFV [chain 1 T16V] | 0.0426 log2 (difference from the parental peptide)

Row | Variant | enrichment
53 | chain 1 EEDDYTAYAPLTCYFS [chain 1 T16S] | 0.936 log2 (difference from the parental peptide)
54 | chain 1 EEDDYTAYAPLTCYFI [chain 1 T16I] | -0.207 log2 (difference from the parental peptide)
55 | chain 1 EEDDYDAYAPLTCYFT [chain 1 T6D] | 2.62 log2 (difference from the parental peptide)
56 | chain 1 EEDDYQAYAPLTCYFT [chain 1 T6Q] | 1.41 log2 (difference from the parental peptide)
57 | chain 1 EEDDYGAYAPLTCYFT [chain 1 T6G] | 2.9 log2 (difference from the parental peptide)
58 | chain 1 EEDDYHAYAPLTCYFT [chain 1 T6H] | 0.0995 log2 (difference from the parental peptide)
59 | chain 1 EEDDYPAYAPLTCYFT [chain 1 T6P] | -2.2 log2 (difference from the parental peptide)
60 | chain 1 EEDDYLAYAPLTCYFT [chain 1 T6L] | -1.51 log2 (difference from the parental peptide)
61 | chain 1 EEDTYTAYAPLTCYFT [chain 1 D4T] | -3.75 log2 (difference from the parental peptide)
62 | chain 1 EEDMYTAYAPLTCYFT [chain 1 D4M] | -1.48 log2 (difference from the parental peptide)
63 | chain 1 EEDLYTAYAPLTCYFT [chain 1 D4L] | -2.06 log2 (difference from the parental peptide)
64 | chain 1 EEDHYTAYAPLTCYFT [chain 1 D4H] | -3.06 log2 (difference from the parental peptide)
65 | chain 1 EEDAYTAYAPLTCYFT [chain 1 D4A] | -1.65 log2 (difference from the parental peptide)
66 | chain 1 EEDDYTAYAPLTMYFT [chain 1 C13M] | -4.59 log2 (difference from the parental peptide)
67 | chain 1 EEDDYTAYAPLTYYFT [chain 1 C13Y] | -5.14 log2 (difference from the parental peptide)
68 | chain 1 EEDDYTAYAPLTLYFT [chain 1 C13L] | -7.42 log2 (difference from the parental peptide)
69 | chain 1 EEDDYTAYAPLTPYFT [chain 1 C13P] | -7.21 log2 (difference from the parental peptide)
70 | chain 1 EEDDYTAYAPLTVYFT [chain 1 C13V] | -6.58 log2 (difference from the parental peptide)
71 | chain 1 EEDDYTFYAPLTCYFT [chain 1 A7F] | -2.38 log2 (difference from the parental peptide)
72 | chain 1 EEDDYTSYAPLTCYFT [chain 1 A7S] | 0.379 log2 (difference from the parental peptide)
73 | chain 1 EEDDYTGYAPLTCYFT [chain 1 A7G] | -0.215 log2 (difference from the parental peptide)
74 | chain 1 EEDDYTVYAPLTCYFT [chain 1 A7V] | -1.12 log2 (difference from the parental peptide)
75 | chain 1 EEDDYTAYAPLTCRFT [chain 1 Y14R] | -6.83 log2 (difference from the parental peptide)
76 | chain 1 EEDDYTAYAPLTCIFT [chain 1 Y14I] | -0.627 log2 (difference from the parental peptide)
77 | chain 1 EEDDYTAYAPLTCAFT [chain 1 Y14A] | -5.59 log2 (difference from the parental peptide)
78 | chain 1 EEDDYTAYAPLTCLFT [chain 1 Y14L] | -2.62 log2 (difference from the parental peptide)

Variants of: B2

Row | Variant | enrichment
79 | chain 1 C13A | -2.32 log2 (difference from the parental peptide)
80 | chain 1 C13F | -0.473 log2 (difference from the parental peptide)
81 | chain 1 C13L | -1.06 log2 (difference from the parental peptide)
82 | chain 1 Y5W | -0.0149 log2 (difference from the parental peptide)
83 | chain 1 Y5I | -2.45 log2 (difference from the parental peptide)
84 | chain 1 Y5E | -1.42 log2 (difference from the parental peptide)
85 | chain 1 Y14I | 1.29 log2 (difference from the parental peptide)
86 | chain 1 Y14P | -2.37 log2 (difference from the parental peptide)
87 | chain 1 Y14C | -2.25 log2 (difference from the parental peptide)
88 | chain 1 Y14M | 1.03 log2 (difference from the parental peptide)
89 | chain 1 Y14N | 0.255 log2 (difference from the parental peptide)
90 | chain 1 F15R | 1.7 log2 (difference from the parental peptide)
91 | chain 1 F15K | 2.15 log2 (difference from the parental peptide)
92 | chain 1 F15T | 2.65 log2 (difference from the parental peptide)
93 | chain 1 F15E | 1.9 log2 (difference from the parental peptide)
94 | chain 1 F15I | 1.54 log2 (difference from the parental peptide)
95 | chain 1 T6D | 2.7 log2 (difference from the parental peptide)
96 | chain 1 T6R | -0.801 log2 (difference from the parental peptide)
97 | chain 1 T6K | -1.83 log2 (difference from the parental peptide)
98 | chain 1 A7N | 1.02 log2 (difference from the parental peptide)
99 | chain 1 A7H | -0.321 log2 (difference from the parental peptide)
100 | chain 1 A7R | -0.287 log2 (difference from the parental peptide)
101 | chain 1 A7F | -0.605 log2 (difference from the parental peptide)

Row | Variant | enrichment
102 | chain 1 T16A | 1.43 log2 (difference from the parental peptide)
103 | chain 1 T16I | 0.743 log2 (difference from the parental peptide)
104 | chain 1 T16P | 1.42 log2 (difference from the parental peptide)
105 | chain 1 T16H | 0.233 log2 (difference from the parental peptide)
106 | chain 1 T12N | 0.576 log2 (difference from the parental peptide)
107 | chain 1 T12K | -0.15 log2 (difference from the parental peptide)
108 | chain 1 T12S | 0.405 log2 (difference from the parental peptide)
109 | chain 1 L11K | 1.95 log2 (difference from the parental peptide)
110 | chain 1 E1I | -1.02 log2 (difference from the parental peptide)
111 | chain 1 E1W | -2.25 log2 (difference from the parental peptide)
112 | chain 1 E1H | -1.32 log2 (difference from the parental peptide)
113 | chain 1 D4W | -3.2 log2 (difference from the parental peptide)
114 | chain 1 D4Y | -2.68 log2 (difference from the parental peptide)
115 | chain 1 D3E | 0.904 log2 (difference from the parental peptide)
116 | chain 1 Y8M | -6.01 log2 (difference from the parental peptide)
117 | chain 1 Y8L | -7.29 log2 (difference from the parental peptide)
118 | chain 1 Y8R | -6.7 log2 (difference from the parental peptide)
119 | chain 1 A9S | 0.31 log2 (difference from the parental peptide)
120 | chain 1 A9T | -0.868 log2 (difference from the parental peptide)
121 | chain 1 A9V | -3.26 log2 (difference from the parental peptide)
122 | chain 1 A9M | -1.3 log2 (difference from the parental peptide)
123 | chain 1 P10N | -7.54 log2 (difference from the parental peptide)
